Laboratory results taken from patent US20240293316.

Tests used:
[1] = target: T1, NPR (micellar nanoparticles of PPAR, DEX-containing PPA with random peptide) (not fully specified)
T1 chain: GGSGSGSGWGERDGS

[2] = target: T2, NPD (micellar nanoparticles of PPAD, DEX-containing PPA with D-MMP peptide) (not fully specified)
T2 chain: GPLGLAGGERDG

[3] = target: T3, NPL (micellar nanoparticles of PPAL, DEX-containing PPA with L-MMP peptide) (not fully specified)
T3 chain: GPLGLAGGERDG

B1: thermolysin (protein)
chain: ITGTSTVGVGRGVLGDQKNINTTYSTYYYLQDNTRGNGIFTYDAKYRTTLPGSLWADADNQFFASYDAPAVDAHYYAGVTYDYYKNVHNRLSYDGNNAAIRSSVHYSQGYNNAFWNGSQMVYGDGDGQTFIPLSGGIDVVAHELTHAVTDYTAGLIYQNESGAINEAISDIFGTLVEFYANKNPDWEIGEDVYTPGISGDSLRSMSDPAKYGDPDHYSKRYTGTQDNGGVHINSGIINKAAYLISQGGTHYGVSVVGIGRDKLGKIFYRALTQYLTPTSNFSQLRAAAVQSATDLYGSTSQEVASVKQAFDAVGVK
B1 was tested, and the “nanoparticle cleavage experiment (TEM after thermolysin treatment, 1 µM thermolysin : 100 µM polymer, 24 hours at 37° C.)” value (from here on “nanoparticle cleavage experiment”) [1] was “maintained their nanoparticle morphology”, the “nanoparticle cleavage experiment” value [2] was “maintained their nanoparticle morphology” and the “nanoparticle cleavage experiment” value [3] was “underwent cleavage induced aggregation”.
